Experimental data: patent US20130115676
Positions count from the first letter of the chain named.

Legend:
Assay in all cases: cleavage_in_vitro
BstXI = details: NEB4, 10 mM Mg acetate, 55 C
[1] = molecular target: T1, PstI-HF D91A (Providencia stuartii 164) (UniProt P00640); details: NEB4, 10 mM Mg acetate, 37 C
T1 sequence: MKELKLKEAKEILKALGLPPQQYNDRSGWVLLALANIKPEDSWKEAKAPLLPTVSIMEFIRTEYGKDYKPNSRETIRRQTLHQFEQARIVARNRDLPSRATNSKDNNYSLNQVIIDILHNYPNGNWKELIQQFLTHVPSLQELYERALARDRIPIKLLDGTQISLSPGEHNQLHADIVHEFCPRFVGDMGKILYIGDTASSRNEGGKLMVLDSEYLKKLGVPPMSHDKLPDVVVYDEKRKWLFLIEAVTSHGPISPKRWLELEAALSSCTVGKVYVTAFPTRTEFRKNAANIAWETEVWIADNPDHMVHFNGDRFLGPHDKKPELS

[2] = molecular target: T2, BamHI-HF E163A/E167T (Bacillus amyloliquefaciens) (UniProt P23940); details: NEB4, 10 mM Mg acetate, 37 C
T2 sequence: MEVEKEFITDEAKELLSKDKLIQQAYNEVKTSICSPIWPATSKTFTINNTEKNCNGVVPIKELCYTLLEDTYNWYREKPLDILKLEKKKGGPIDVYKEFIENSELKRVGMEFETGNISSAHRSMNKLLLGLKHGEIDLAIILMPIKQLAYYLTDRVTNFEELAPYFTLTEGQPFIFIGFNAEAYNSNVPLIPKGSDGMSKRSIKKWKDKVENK

BsmBI-HF N185Y/R232A = details: NEB4, 10 mM Mg acetate, 55 C; listed as BsmBI
[3] = molecular target: T3, PstI (Providencia stuartii 164) (UniProt P00640); details: NEB3, 10 mM MgCl2, 37 C
T3 sequence: T1 sequence with A91D

[4] = tested on: T4, SbfI-HF K251A (Streptomyces species Bf-61?); details: NEB1, 10 mM MgCl2, 37 C
T4 sequence: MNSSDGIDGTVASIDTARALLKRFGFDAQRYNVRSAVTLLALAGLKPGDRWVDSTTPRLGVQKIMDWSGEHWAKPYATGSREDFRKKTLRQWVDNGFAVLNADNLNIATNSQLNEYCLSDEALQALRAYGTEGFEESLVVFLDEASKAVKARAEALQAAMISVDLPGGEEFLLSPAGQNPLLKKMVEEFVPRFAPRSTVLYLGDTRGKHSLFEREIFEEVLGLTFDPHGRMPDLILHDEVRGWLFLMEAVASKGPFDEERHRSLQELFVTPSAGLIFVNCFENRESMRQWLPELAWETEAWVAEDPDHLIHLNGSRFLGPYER

[5] = tested on: T5, SbfI (Streptomyces species Bf-61?); details: NEB1, 10 mM MgCl2, 37 C
T5 sequence: T4 sequence with A251K

[6] = molecular target: T6, ScaI-HF H193A/S201F (Streptomyces caespitosus) (UniProt O52691); details: NEB4, 10 mM Mg acetate, 37 C
T6 sequence: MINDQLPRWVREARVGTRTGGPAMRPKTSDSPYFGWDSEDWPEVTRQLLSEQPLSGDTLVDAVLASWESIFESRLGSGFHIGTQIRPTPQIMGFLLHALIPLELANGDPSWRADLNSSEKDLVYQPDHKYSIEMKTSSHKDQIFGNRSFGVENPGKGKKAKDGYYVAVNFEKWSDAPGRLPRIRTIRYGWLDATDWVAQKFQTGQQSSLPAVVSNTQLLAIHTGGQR

BstXI-HF N65A = details: NEB4, 10 mM Mg acetate, 55 C
[7] = tested on: T7, SspI (Sphaerotilus species); details: NEB1, 10 mM MgCl2, 37 C
T7 sequence: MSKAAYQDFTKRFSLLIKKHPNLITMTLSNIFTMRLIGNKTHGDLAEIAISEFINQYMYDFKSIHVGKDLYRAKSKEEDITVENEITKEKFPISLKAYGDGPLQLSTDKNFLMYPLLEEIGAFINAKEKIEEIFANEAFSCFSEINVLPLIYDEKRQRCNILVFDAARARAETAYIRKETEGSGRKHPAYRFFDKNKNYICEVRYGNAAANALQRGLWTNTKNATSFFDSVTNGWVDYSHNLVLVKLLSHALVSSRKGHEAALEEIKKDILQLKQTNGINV

[8] = tested on: T8, SspI-HF Y98F (Sphaerotilus species); details: NEB4, 10 mM Mg acetate, 37 C
T8 sequence: T7 sequence with Y98F

lambda DNA
activity (fidelity index) (BstXI): 4 | activity (fidelity index) [1]: 4000 | activity (fidelity index) [2]: > 4000 | activity (fidelity index) (BsmBI-HF N185Y/R232A): > 500 | activity (fidelity index) [3]: 120 | activity (fidelity index) [4]: 1000 | activity (fidelity index) [5]: 32 | activity (fidelity index) [6]: 1000 | activity (fidelity index) (BstXI-HF N65A): > 250 | activity (fidelity index) [7]: 64 | activity (fidelity index) [8]: 500
